Source: publication PMC6825169, “Extracellular vesicle integrins act as a nexus for platelet adhesion in cerebral microvessels” (Scientific Reports, 2019)
Bridges are numbered along the chain shown (N, C = ends).

Biological target: integrin αvβ3 (mouse (endogenous in mouse middle …, UniProt P43406 31-1044; O54890 26-787)
Experiment: cell-based or functional assay

Sequence of integrin αvβ3 (mouse (P43406 31-1044, chain 1 of 2): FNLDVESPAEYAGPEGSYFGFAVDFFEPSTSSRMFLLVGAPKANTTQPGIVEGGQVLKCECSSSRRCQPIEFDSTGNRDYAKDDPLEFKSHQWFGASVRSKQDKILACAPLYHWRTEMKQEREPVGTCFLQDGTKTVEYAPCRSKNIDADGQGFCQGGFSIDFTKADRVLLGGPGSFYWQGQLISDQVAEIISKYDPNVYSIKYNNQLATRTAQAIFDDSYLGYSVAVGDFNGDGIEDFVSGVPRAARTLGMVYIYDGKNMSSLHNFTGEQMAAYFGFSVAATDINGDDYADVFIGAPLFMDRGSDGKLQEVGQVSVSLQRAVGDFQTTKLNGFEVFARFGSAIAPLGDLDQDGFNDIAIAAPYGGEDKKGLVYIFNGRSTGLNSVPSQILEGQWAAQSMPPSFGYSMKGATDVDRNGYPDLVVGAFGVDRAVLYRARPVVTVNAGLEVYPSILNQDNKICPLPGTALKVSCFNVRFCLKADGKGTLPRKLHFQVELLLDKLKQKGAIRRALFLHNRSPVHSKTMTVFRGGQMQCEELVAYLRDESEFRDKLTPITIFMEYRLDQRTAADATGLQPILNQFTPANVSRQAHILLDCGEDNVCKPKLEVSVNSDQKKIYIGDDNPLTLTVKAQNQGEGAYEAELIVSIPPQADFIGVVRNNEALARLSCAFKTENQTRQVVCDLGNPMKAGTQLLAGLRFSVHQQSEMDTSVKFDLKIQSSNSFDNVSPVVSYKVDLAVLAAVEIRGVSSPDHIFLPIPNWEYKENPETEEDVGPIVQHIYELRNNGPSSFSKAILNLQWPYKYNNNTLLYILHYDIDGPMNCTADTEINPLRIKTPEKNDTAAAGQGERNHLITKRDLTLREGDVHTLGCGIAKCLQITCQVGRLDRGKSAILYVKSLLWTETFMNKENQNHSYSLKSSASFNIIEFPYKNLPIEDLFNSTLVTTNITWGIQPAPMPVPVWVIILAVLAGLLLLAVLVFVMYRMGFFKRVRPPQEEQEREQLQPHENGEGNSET
Sequence of integrin αvβ3 (mouse (O54890 26-787, chain 2 of 2): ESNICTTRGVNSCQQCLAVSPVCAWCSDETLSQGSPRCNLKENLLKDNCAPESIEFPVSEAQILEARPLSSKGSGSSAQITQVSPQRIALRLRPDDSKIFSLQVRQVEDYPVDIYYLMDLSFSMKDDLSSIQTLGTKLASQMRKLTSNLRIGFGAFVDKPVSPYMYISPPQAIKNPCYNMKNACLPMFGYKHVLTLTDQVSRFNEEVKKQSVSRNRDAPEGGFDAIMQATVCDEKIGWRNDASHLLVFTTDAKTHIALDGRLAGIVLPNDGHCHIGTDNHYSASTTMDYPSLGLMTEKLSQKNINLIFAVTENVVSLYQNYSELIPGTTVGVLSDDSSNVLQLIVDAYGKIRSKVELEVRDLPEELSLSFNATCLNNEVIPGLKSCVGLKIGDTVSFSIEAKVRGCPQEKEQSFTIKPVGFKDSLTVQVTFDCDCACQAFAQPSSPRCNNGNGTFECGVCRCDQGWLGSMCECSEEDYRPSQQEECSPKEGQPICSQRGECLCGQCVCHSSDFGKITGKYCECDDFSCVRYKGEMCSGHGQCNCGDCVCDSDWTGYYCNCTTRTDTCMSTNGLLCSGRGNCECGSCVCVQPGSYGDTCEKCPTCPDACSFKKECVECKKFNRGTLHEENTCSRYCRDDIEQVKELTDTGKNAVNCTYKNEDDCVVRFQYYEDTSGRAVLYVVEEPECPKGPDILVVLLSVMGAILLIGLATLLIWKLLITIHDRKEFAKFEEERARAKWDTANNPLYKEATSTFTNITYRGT

adherence of CFSE-labelled washed platelets to the luminal surface of the MCA under flow after cRGD-MPs, compared to cRGD peptide alone: 3 fold
Binder: H-GCRGDC-NH2 (disulfide 2-6 (inferred)) [H-GCRGDC-NH2 (cRGD)]
